Assay: soluble on expression in E. coli; label from the status in PepcDB or PDB records

| Sequence | soluble on expression in E. coli |
| --- | --- |
| MTLTELRYIVAVAQERHFGRAARRCFVSQPTLSIAIKKLEEELAVSLFDRSSNDIITTEAGERIVAQARKVLEEAELIRHLANEEQNELEGAFKLGLIFTVAPYLLPKLIVSLRRTAPKMPLMLEENYTHTLTESLKRGDVDAIIVAEPFQEPGIVTEPLYDEPFFVIVPKGHSFEELDAVSPRMLGEEQVLLLTEGNCMRDQVLSSCSELAAKQRIQGLTNTLQGSSINTIRHMVASGLAISVLPATALTENDHMLFSIIPFEGTPPSRRVVLAYRRNFVRPKALSAMKAAIMQSQLHGVSFICD | soluble |
| MNCRLGCGACCIAPSISSVIPGMPNGKAAGERCVQLSDDNLCLIFGSPERPAVCCDFEASLDVCGHSNEEALWLITNLESQTSLEHHHHHH | not soluble |
| MADPSFASGRLGSRLQGSIAMIAEELLRAGRLDDALKALQEQVRSQPSNATLRIFLFQLLAVMGQWARAQNQLKVVGELDASALPMVQTYSTAIDCEALRREVFAGRLTPVILGQPAEWIAPLLQALSLDAEGHGEAAQALREQAFDAAPAVPGRIGEAPFAWLADADTRLGPVLEVIVNGRYAWLPMSNLRSLKVEAPSDLRDLVWLPAELTLANGGATVALLPARYAETVEHGDDAARLGRKTEWLDSGLPVGQRLFVTDAGETALFDLRELDFEPTDA | not soluble |
| MSLDLRARVREELERLKREGLYISPKVLEAPQEPVTRVEGREVVNLASNNYLGFANHPYLKEKARQYLEKWGAGSGAVRTIAGTFTYHVELEEALARFKGTESALVLQSGFTANQGVLGALLKEGDVVFSDELNHASIIDGLRLTKATRLVFRHADVAHLEELLKAHDTDGLKLIVTDGVFSMDGDIAPLDKIVPLAKKYKAVVYVDDAHGSGVLGEKGKGTVHHFGFHQDPDVVQVATLSKAWAGIGGYAAGARELKDLLINKARPFLFSTSHPPAVVGALLGALELIEKEPERVERLWENTRYFKRELARLGYDTLGSQTPITPVLFGEAPLAFEASRLLLEEGVFAVGIGFPTVPRGKARIRNIVTAAHTKEMLDKALEAYEKVGKRLGIIR | soluble |
| MGHHHHHHSHMSEPGKGDDCLELESSMAESRLRAPDLGVSRCLGKCQKNSPGARKHPFSGKSFYLDLPAGKNLQFLTGAIQQLGGVIEGFLSKEVSYIVSSRREVKAESSGKSHRGCPSPSPSEVRVETSAMVDPKGSHPRPSRKPVDSVPLSRGKELLQKAIRNQVSWGKMGQSRWSPA | not soluble |
| MNQQDIEQVVKAVLLKMKDSSQPASTVHEMGVFASLDDAVAAAKRAQQGLKSVAMRQLAIHAIREAGEKHARELAELAVSETGMGRVDDKFAKNVAQARGTPGVECLSPQVLTGDNGLTLIENAPWGVVASVTPSTNPAATVINNAISLIAAGNSVVFAPHPAAKKVSQRAITLLNQAVVAAGGPENLLVTVANPDIETAQRLFKYPGIGLLVVTGGEAVVDAARKHTNKRLIAAGAGNPPVVVDETADLPRAAQSIVKGASFDNNIICADEKVLIVVDSVADELMRLMEGQHAVKLTAAQAEQLQPVLLKNIDERGKGTVSRDWVGRDAGKIAAAIGLNVPDQTRLLFVETPANHPFAVTEMMMPVLPVVRVANVEEAIALAVQLEGGCHHTAAMHSRNIDNMNQMANAIDTSIFVKNGPCIAGLGLGGEGWTTMTITTPTGEGVTSARTFVRLRRCVLVDAFRIV | not soluble |
| MSLSIPTIKQVRAFVLRGGGADYHDQGDGHWIDDHISTPMGKYPEYRQSRRSFGINVLGTLVVEIEASDGNVGFAVTTGGEPAAYIVEKHLARFLEGARVTDIERIWDQMYNSTLYYGRKGLVINTISGVDLALWDLLGKVRREPVHQLLGGAVRDELQFYATGARPDLAQKMGFIGGKMPLHHGPSEGEEGLKKNLEELATMRERVGPDFWLMFDCWMSLDLNYATRLARGAREYGLKWIEEALPPDDYWGYAELRRNAPTGMMVTTGEHEATRWGFRMLLEMGCCDIIQPDVGWCGGVTELLKISALADAHNALVVPHGSSVYSYHFVATRQNSPFAEFLMMAPKADQVVPMFHPQLLGEPVPENGRMRLSRLDQPGFGVTLNPECQLHRPYTHEGHHHHHH | soluble |
| MGSDKIHHHHHHMKLRRNMKWNDEGKRIVEMLKLRTPPVGVKFFQEKYEPERAFRPSKYGIKMAVCQAIAFARYIGRTVVLEAEDFGCPPAMLLYGVAEYEGSLKDILVGAQWLKDESCEVAEQKLPLGKYKSFVFGDMTKMAEEPEAVMIFGTPAQIGRLIQAATYFGGAVKANLTAKTASCAEALFPALRGEVAIAVPGAGDRVFAAIQETEMIFAMPYAWTGKILEGLENAGRGANISYPPSPFLMFTPRFPKHYRETAEKFKLV | not soluble |
| MSLSLEYKGTFGSINAGYADWNSGFVNTHRGEVWKVTADFGVNFKEAEFYSFYESNVLNHAVAGRNHTVSAMTHVRLFDSDMTFFGKIYGQWDNSWGDDLDMFYGFGYLGWNGEWGFFKPYIGLHNQSGDYVSAKYGQTNGWNGYVVGWTAVLPFTLFDEKFVLSNWNEIELDRNDAYTEQQFGRNGLNGGLTIAWKFYPRWKASVTWRYFDNKLGYDGFGDQMIYMLGYDFEGHHHHHH | not soluble |
| MGSDKIHHHHHHAVDAKLLEMLRANGSINQAQYNELQGDLAKETKEKADQKAQSERMSSFEQKVAWAAKTQIKGDVRLRYEDVNVDDPNSSSGNQDRQRVRARVGFYSEINPQVDAGVRIATGSSADRRSTNQSFDNYFDKKSLWVDLAYLDWHPTAVPNLHLIGGKMQQPWVSMGDIIWDSDINPEGVAATYKADLGGAEVFASAGQYTLKDNVDGDGVQYKHDAQVYHGQLGAKFAPADVLKLTVGASIYGYDNDKEAAILQSFGNTTNEFNLVEGFGQIDFTGLAIPLSAYGQYVKNTDSTDGEDQAWLAGLKTKMGAWSLDYNYRDVQRNAVVSLFTDSDFGNGYTGSRGHKFKVGYEIDKNFSLGAAYLMAKTDLSQLPNSNADVDTLQVDLEAKF | not soluble |
| MKLTKTLLTTALFGASIFSFQSTAWADTPEQQFQQGLTAYEQSDYQTAFKLWLPMAEQGYAQAQGGLGMMYERGLGVKQDDFKAVNWYRKAAEQGDADAQLNLGAMYAIGHGVKQDGVEAVKWFRKAAEQGNAKAQNGLGMMYRGRLGIKQDYFKAVKWYRKAAEQGYGGAQVMLGFSYLSGKGVQVNKSLAKEWFGKACDNGEQVGCEYYSKLNRGER | not soluble |
| MGSDKIHHHHHHMTNWLPDLTGGAGPLYQRLADSVEAGIDQGVIGAGTKLPPQRDLAYDIGTTVGTVGRAYQLLRERGLVSGEVGRGTYVLGRRADGVKPEAPDVSVEGTRYVDAPQDKLRFDSTAAPDVGQGAVVADVLSRTAQDHPHEISSYTRDFPGRWYEAGARWLARNSFRPAADGIVPTLGTHAAVMAAIAALTTPGDYVAFEHLTYSQISRSAGLIGRRTALVASDDEGLDPADFERVCAQKHPRMIFLMPTAQNPTLTTLSAGRREAIARVAREYNVILIEDDLYGHLTDDPTPLLAEYAPERTIVAGGLSKSVAAGIRGGWLSCPPAYRHRIRVAHKMMTGGMPFLLAEVNTRLVLSGQASDIRKRCIAEISARIAIVRETLAGFAFKSHDKVPFVWLTLPDPWLSGTFKNACLEHGVLIDDEDEFKAGRSEQVFHGVRFGTSQPRQRGDVANGVAVIRRLLDEGRAGYDSFS | not soluble |
| SNAAQQVQQPVAQQQVQQPAQQNTNTANAGGNQNQAAPVQNQPVAQPTDIDGTYTGQDDGDRITLVVTGTTGTWTELESDGDQKVKQVTFDSANQRMIIGDDVKIYTVNGNQIVVDDMDRDPSDQIVLTK | soluble |
| VSKDRLYFRQLLSGRDFAVGDMFATQMRNFAYLIGDRTTGDCVVVDPAYAAGDLLDALESDDMQLSGVLVTHHHPDHVGGSMMGFQLPGLAELLERASVPVHVNTHEALWVSRVTGIPVGDLITHEHGDKVSVGDIDIELLHTPGHTPGSQCFLLDGRLVAGDTLFLEGCGRTDFPGGDSDEMYRSLRQLAELPGDPTVFPGHWYSAEPSASLSEVKRSNYVYRPASLDQWRMLMGG | not soluble |
| MGSDKIHHHHHHDSFLDEKMYSSYGPEVSDVNAKLVGLHRQYAAIWGMSSQQGFVGCWQVGTDVGAPGDTQGVEVPFYRYQELNAENAGVSFLWEKLYELINSANQIIASQAEGGDAAATAEAMFFRAYAYNMLVTLWGDVPLVTESTSIPRTDYTRNAVAEVDGVIDSDLVYAMSNLPVVGAAKNESRINQDMARQLAGEAYLRMGMRDASYFKKAEDAVTPIITGGKYELISARYGKYAAEPGDYYHDMFRWGNQRRSQGNMEAIWTFEMEYNRDVNGGTIDNPQQRRNWVPAFHKLDGMVNADSIGGRGNGRLRISNFVKYGLYEKGDIRNSNYNIRRVMWYNKPGFSKEVGIDAKGFLVDKDKGIRNVTLKTGDQVIPHEGDSLNVFYPHPTKWGAYDETDDFGYAVVKDWPVMRLGETYLLRAEARFRQGNTQGAADDINVLRDRAFKDYRAVAPGAGKVTADQIDIDFILDERARELISEENRRMTLVRTNTLAERIKLNGDMEPAAPSNKVITGFDANIHTLLPIPLTEIQLNKDGDLKQNPGY | not soluble |
| MSLKPRVAVIGSGSIGLLLYAYLKLANWPALLVTNRPEQADHLNKEGLTFVAKSGEHQPISVTATPLSSFSAEEAEVGFITVKSFAVKALLPQLQRKKWDGLVFFQNGMTHLEILRQIPARAICCGIVEIGAKRESDVRVQHTGDGAIWIGDMVGDSKNFDPMWACLHNAGLKAQKVTNWQDKMERKLIANAAINPLTGLFRVKNGALIENQLFSLLLKELVKEACVTLGREREVDEHLAYTRAICDKTANNLSSMYMDLTHHRRTEIESITGYLIKEAAKKGIEIPNTSFVYHAVMGMDEEGRKVREGHHHHHH | soluble |
| SLEECVCENYKLAVNCFVNNNRQCQCTSVGAQNTVICSKLAAKCLVMKAEMNGSKLGRRAKPEGALQNNDGLYDPDCDESGLFKAKQCNGTSTCWCVNTAGVRRTDKDTEITCSERVRTYWIIIELKHKAREKPYDSKSLRTALQKEITTRYQLDPKFITSILYENNVITIDLVQNSSQKTQNDVDIADVAYYFEKDVKGESLFHSKKMDLTVNGEQLDLDPGQTLIYYVDEKAPEFSEG | not soluble |
| MGSDKIHHHHHHMSVMFDPQAAIYPFPPKPTPLNDDEKQFYREKIKRLLKERNAVMVAHYYTDPEIQQLAEETGGCISDSLEMARFGTKHAASTLLVAGVRFMGETAKILSPEKTILMPTLAAECSLDLGCPIDEFSAFCDAHPDRTVVVYANTSAAVKARADWVVTSSIAVELIEHLDSLGEKIIWAPDRHLGNYVQKQTGADVLCWQGACIVHDEFKTQALTRLKKIYPDAALLVHPESPQSIVEMADAVGSTSQLIKAAKTLPHRQLIVATDRGIFYKMQQAVPEKELLEAPTAGEGATCRSCAHCPWMAMNGLKAIAEGLEQGGAAHEIQVDAALREGALLPLNRMLDFAATLRA | not soluble |
| MSLSLLEVCADLCGQQTLSLFQSSPSVQQVSQTRDLQDIIGQQQGKRALEIAAAGNHNLLFLGPPGTGKTMLASRLCDLLPEMSDEEAMETASIASLTQQEINQHNWKLRPFRAPHHSSSMAALVGGGTIPRPGEISLAHNGLLFLDEMPEFERKVLDSLREPLESGEIVISRAQGKTRFPARFQLVGALNPSPTGYYEGSQARANPQSILRYLSRLSGPLLDRFDMSIEIPALPKGTLANGGDRGESTAAVRQRVWVARERMLARSGKVNALLQSREIEQYCPLLKADAEFLESALHRLGLSIRAYHRIIKVARTIADLQGEAQIARPHLAEALGYRAMDRLLKQLSAQNEGHHHHHH | not soluble |
| MGSDKIHHHHHHMLQNGYVPCSFRISMAGMDVEFNTKNDVIKAYLSRPDDGMRHPGIVVIHEIFGLDDHIRSVADRISREGYVALAPDLFSSHELSAKITREGILESMKFIMSIPPEKQRDDSYRNSLLNSMPEEKRRIMSSTYSALFVNRPTQLLTEYLEYAVDYLKGIGVTSVGSVGFCFGGGMSANLGCTGKVDATVIFYGENPDPIDKVKGMKSVLGLYAGEDHRITSRVPELLAKLIEFSIPVTIKVYPGAYHAFFNDTRPQIYNEAAAKDAWNMMLYFFRTQLGP | not soluble |

From the DeepSol protein solubility set
